Data published in patent US9126993B2, “Glucosylceramide synthase inhibitors” (GENZYME CORPORATION, priority 2011, dated 2015).
“Also recorded” adds a separate entry of the source.

What was measured:
[1] = system: Fabry mice; assay: Substrate reduction therapy in Fabry mouse model: Gb3 and lyso-Gb3 levels; assay type: in vivo; conditions: Fabry mice, in diet for 4 months starting at 8 months old; GZ 452 60 mg/kg/day, GZ 638 300 mg/kg/day
Experimental: In the following experiments, mice dosed with GCS inhibitors at either ˜60 mg/kg/day of (S)-Quinuclidin-3-yl(2-(2-(4-fluorophenyl)thiazol-4-yl)propan-2-yl)carbamate (S)-2-hydroxysuccinate salt (hereinafter “GZ 452”) or ˜300 mg/kg/day of (1R,2R)-Octanoic acid[2-(2′,3′-dihydro-benzo[1,4] dioxin-6′-yl)-2-hydroxy-1-pyrrolidin-1-ylmethyl-ethyl]-amide-L-tartaric acid salt (hereinafter “GZ 638”) as a component of the pelleted food diet provided ad libitum. Lipid analysis was by ESI/MS as described in Marshall et al., PLoS ONE 5:e15033 (2010). As discussed in further detail below, treatment started when the mice were 3, 8 or 12 months of age to test the efficacy at different disease severities. Blood and urine was collected monthly and periodic tissue harvests provided materials to evaluate efficacy of the therapy (Gb3 and lyso-Gb3 levels). […] As further discussed below, the efficacy of SMT was affected by the age of the mice at the start of treatment. Generally, the older the mouse, the higher the levels of Gb3 stored and thus a longer period of treatment was required in order to affect similar therapeutic benefit (see FIG. 4). The experiments and results are described further below.
In this experiment, Fabry mice were treated with GCS inhibitors in their diet for 4 months starting at 8 months old. […] Age-matched wild-type levels (WT) are also shown. […]

[2] = system: K14 mice; conditions: neonatal (P1-P3) intracerebroventricular injections, previous experiments (Cabrera-Salazar et al. 2010); cited from earlier work
[3] = system: Fabry mice; assay: Thermal nociceptive response (55° C. hotplate) in Fabry mice; assay type: in vivo, mouse; conditions: 10 month old Fabry mice after 7 months of treatment
Experimental: Three month old Fabry mice were treated with GZ 452 in their diet (SRT), αgal once every 2 months (ERT), or a combination of the 2 treatments (E+S), as described above. […]

[4] = system: Fabry mice; assay: Combination therapy (ERT + SRT) in Fabry mouse model: plasma and urine Gb3 and lyso-Gb3; assay type: in vivo; conditions: Fabry mice treated 2 months from 3 months of age; ERT 1 mg/kg iv every 2 months; SRT GZ 452 ~60 mg/kg/day in diet
Text: Fabry mice were used to test the in vivo efficacy of combining enzyme replacement therapy with small molecule therapy in a concurrent treatment format. The study was designed to evaluate whether substrate inhibition (i.e. “substrate reduction therapy”) using the GZ 452 compound could reduce re-accumulation of the storage material Gb3 and lyso-Gb3. The study protocol called for three distinct treatment groups of 3 month old male Fabry mice (FIG. 6A). The first group received intravenous injections of alpha-galactosidase A enzyme (ERT) at 1 mg/kg to reduce Gb3 levels and was repeated every 2 months. The second group received the same enzyme injections as group 1, but also were dosed with GZ 452 at ˜60 mg/kg/day as a component of the pelleted diet. The third group received only the daily dosing of GZ 452 in their diet. A fourth group received no treatment to serve as vehicle controls and a fifth group of wild-type animals provided ‘normal’ Gb3 and lyso-Gb3 values. Monthly urine and blood collections and three monthly tissue harvests provide materials to evaluate relative efficacy of the therapies (FIG. 6A).
After 2 months (mice were 5 months old), plasma (FIG. 6B, panels A and C) and urine (FIG. 6B, panels B & D) were analyzed for Gb3 (FIG. 6B, panels A and B) and lyso-Gb3 (FIG. 6B, panels C and D). […] SMT therapy alone or in combination with ERT was also capable of affecting (reducing accumulation) of lyso-Gb3.

## (1R,2R)-Octanoic acid[2-(2′,3′-dihydro-benzo[1,4] dioxin-6′-yl)-2-hydroxy-1-pyrrolidin-1-ylmethyl-ethyl]-amide-L-tartaric acid salt [GZ 638, reference compound]
[1]
  Gb3 in visceral tissue (kidney, heart) relative to the starting levels: effective at inhibiting further accumulation of tissue Gb3

B1: GC: Recombinant human glucocerebrosidase (rhGC), reformulated for ICV administration (protein, UniProt P04062 40-536, looked up)
Lysosomal acid …: ARPCIPKSFGYSSVVCVCNATYCDSFDPPTFPALGTFSRYESTRSGRRMELSMGPIQANHTGTGLLLTLQPEQKFQKVKGFGGAMTDAAALNILALSPPAQNLLLKSYFSEEGIGYNIIRVPMASCDFSIRTYTYADTPDDFQLHNFSLPEEDTKLKIPLIHRALQLAQRPVSLLASPWTSPTWLKTNGAVNGKGSLKGQPGDIYHQTWARYFVKFLDAYAEHKLQFWAVTAENEPSAGLLSGYPFQCLGFTPEHQRDFIARDLGPTLANSTHHNVRLLMLDDQRLLLPHWAKVVLTDPEAAKYVHGIAVHWYLDFLAPAKATLGETHRLFPNTMLFASEACVGSKFWEQSVRLGSWDRGMQYSHSIITNLLYHVVGWTDWNLALNPEGGPNWVRNFVDSPIIVDITKDTFYKQPMFYHLGHFSKFIPEGSQRVGLVASQKNDLDAVALMHPDGSAVVVVLNRSSKDVPLTIKDPAVGFLETISPGYSIHTYLWRRQ
[2]
  median survival: 23 days

B2: ERT: alpha-galactosidase A enzyme (ERT), intravenous injections at 1 mg/kg every 2 months (protein, UniProt P06280 32-429, looked up)
Alpha-galactosidase A: LDNGLARTPTMGWLHWERFMCNLDCQEEPDSCISEKLFMEMAELMVSEGWKDAGYEYLCIDDCWMAPQRDSEGRLQADPQRFPHGIRQLANYVHSKGLKLGIYADVGNKTCAGFPGSFGYYDIDAQTFADWGVDLLKFDGCYCDSLENLADGYKHMSLALNRTGRSIVYSCEWPLYMWPFQKPNYTEIRQYCNHWRNFADIDDSWKSIKSILDWTSFNQERIVDVAGPGGWNDPDMLVIGNFGLSWNQQVTQMALWAIMAAPLFMSNDLRHISPQAKALLQDKDVIAINQDPLGKQGYQLRQGDNFEVWERPLSGLAWAVAMINRQEIGGPRSYTIAVASLGKGVACNPACFITQLLPVKRKLGFYEWTSRLRSHINPTGTVLLQLENTMQMSLKDLL
[3]
  thermal nociceptive response time (latency) vs untreated: not significantly different to the untreated group
[4]
  plasma Gb3 level: to a greater extent than SMT; also recorded: reduced
  plasma lyso-Gb3 level: reduced
  urine Gb3 level: unaffected
